Data taken from PMC8617249, “Pharmacokinetic and pharmacodynamic similarity between SAR341402 insulin aspart and Japan-approved NovoRapid in healthy Japanese subjects” (Scientific Reports, 2021).

Columns and labels:
[1] = Plasma insulin aspart pharmacokinetics after a single subcutaneous dose (LC-MS/MS, noncompartmental); type: in vivo, human; settings: single 0.3 U/kg s.c.; for INS-AUCinf, gMean (% CV) / INS-Cmax, gMean (% CV) / INS-AUClast, gMean (% CV): healthy Japanese males, fasting, plasma, LC-MS/MS, geometric mean (%CV); for INS-AUCinf, gMean (% CV): extrapolated to infinity; for INS-AUCinf, gMean (% CV) / INS-AUClast, gMean (% CV): N = 39/40; for INS-Cmax, gMean (% CV): N = 39 SAR-Asp, 40 NN-Asp-Jp; for INS-AUClast, gMean (% CV): time 0 to last quantifiable point
Source text: Following a screening visit 3–28 days before the first period, subjects enrolled into the study were admitted to the study clinic on the day before dosing. On the day of treatment, they were randomized (computer-generated by sponsor) to one of the two treatment sequences (see Supplementary Fig. S1). Subjects received a single subcutaneous dose of 0.3 U/kg SAR-Asp or NN-Asp-Jp in the first treatment period in randomized order followed by the other drug in the second treatment period. A wash-out period of 7–18 days separated each treatment period, with an end-of-study visit performed 4–8 days after the last dose.
Venous blood samples for pharmacokinetic analysis were collected before dosing of study drug, and then every 15 to 60 min during the 10 h clamp period. Samples were centrifuged within 20 min of collection. Plasma was collected and kept frozen (− 60 to − 80 °C) until analysis. Plasma concentrations of SAR-Asp and NN-Asp-Jp were analyzed by using a validated liquid chromatography-tandem mass spectrometry (LC–MS/MS) assay at Syneos Health (Quebec, Canada). Plasma concentrations within the validated concentration range (100–8000 pg/mL) were used to calculated pharmacokinetic parameters. Inter-assay precision (% coefficient of variation [CV]) and inter-assay accuracy (%bias) during validation were ≤ 15%.
The pharmacokinetic analysis dataset included subjects who completed at least one treatment period, had measurable insulin aspart concentrations and no major or critical deviations. Parameter estimates for SAR-Asp and NN-Asp-Jp were calculated by using standard noncompartmental methods with Phoenix WinNonlin 8.1 (Certara, Princeton, NJ). Area under the plasma insulin aspart concentration–time curve was calculated by the trapezoidal method from 0 to the time of the last concentration above the limit of quantification (INS-AUClast) and extrapolated to infinity (INS-AUCinf). Maximum plasma insulin aspart concentration observed (INS-Cmax) and INS-AUClast were the primary pharmacokinetic endpoints of the study. INS-AUCinf was a secondary endpoint.
(§1) Log-transformed pharmacokinetic and pharmacodynamic parameter estimates for SAR-Asp and NN-Asp-Jp were analyzed using a linear mixed-effects model with period, sequence, and treatment as fixed effects and subject as a random effect. For each parameter, the model-based difference in treatment means along with the confidence limits (90% for pharmacokinetic parameters, 95% for pharmacodynamic parameters) was back-transformed to provide estimates for the ratio of geometric means (gMean) between treatments (SAR-Asp/NN-Asp-Jp) and the corresponding confidence limits. Similarity for the pharmacokinetic parameters (INS-AUCinf and INS-Cmax) and bioequipotency for the pharmacodynamic parameters (GIR-AUC0–10 h and GIRmax) was concluded if the confidence limits (90% and 95% confidence intervals [CIs], respectively) of the treatment ratios were entirely within the 0.80–1.25 equivalence interval, in agreement with regulatory guidance[2],[18]. Data was analyzed using SAS v9.4 (SAS Institute, Cary, NC).

healthy Japanese males = assay: 10 h automated euglycemic clamp, glucose infusion rate (glucodynamics); type: in vivo, human; settings: single 0.3 U/kg s.c.; for GIR-AUC0-10 h, gMean (% CV) / GIRmax, gMean (% CV) / median GIR-tmax (time to reach GIRmax): healthy Japanese males, 10 h euglycemic clamp; for GIR-AUC0-10 h, gMean (% CV): body weight standardized GIR, N = 36 SAR-Asp, 38 NN-Asp-Jp; for GIR-AUC0-10 h, gMean (% CV) / GIRmax, gMean (% CV): geometric mean (%CV); for GIRmax, gMean (% CV): smoothed GIR (LOESS, 0.06), N = 36/38
Procedure: Each dosing visit included a 10 h automated euglycemic clamp procedure (STG-55, Artificial Endocrine Pancreas; Nikkiso Co, Ltd, Tokyo, Japan)[13]. The premise of performing the clamp procedure is that the blood glucose lowering effect of an administered insulin is antagonized by a variable infusion of glucose so that blood glucose is maintained (or clamped) at a target level[2],[14]. The metabolic profile of the investigated insulin is characterized by the glucose infusion rate (GIR) needed to keep blood glucose as close as possible at its predefined target level during the glucose clamp.
Following an overnight fast of at least 10 h, subjects were connected to the clamp device and their baseline blood glucose was determined (via glucose oxidase sensors that measure whole-blood glucose levels) before dosing of the study drug. For each subject, this was calculated as the mean of four glucose measurements at 30, 20, 10 and 1 min before administration of the study drugs. The clamp procedure was not performed in those subjects having a baseline glucose level less than 70 mg/dL ([…]). After dosing, onset of insulin action in each subject was when the blood glucose dropped below the target level of the clamp procedure, which was when it was 5 mg/dL (0.28 mmol/L) less than their fasting baseline value.
Blood glucose levels were measured in 1-min intervals, and using a predefined algorithm the clamp device automatically administered a variable infusion of 10% glucose in response to changes in glucose to maintain each subject at their target glucose level. The GIR, being the amount of external glucose needed to keep a subject’s blood glucose concentration at its target level, was continuously measured, and recorded by the STG-55 device. GIR profiles reflected the metabolic effects of SAR-Asp and NN-Asp-Jp over time.
The GIR over time was the primary pharmacodynamic parameter measured during the clamp procedure. The area under the body weight-standardized GIR time curve [GIR-AUC] measured insulin mediated glucose uptake into tissues. Subjects completing at least one clamp procedure with no major or critical deviations were included in the pharmacodynamic analysis dataset. Individual GIR values in each treatment group were standardized for body weight and subjected to a smoothing procedure using a locally weighted scatterplot smoothing (LOESS) function (SAS, PROC LOESS, factor 0.06). A smoothing factor of 6% was used based on the expected morphology of the GIR-profiles. Individual blood glucose levels were also subjected to a smoothing procedure. Fitted data were used to calculate the pharmacodynamic parameters, including the primary parameters of maximum smoothed body weight standardized GIR (GIRmax) and GIR-AUC over 10 h (GIR-AUC0–10 h), and the secondary parameter of time to reach GIRmax (GIR-tmax).
as §1

[2] = ratio of geometric means, linear mixed-effects model, equivalence range 0.80–1.25
[3] = ratio of geometric means, linear mixed-effects model, 10 h clamp, equivalence range 0.80–1.25

| Substance | INS-AUCinf, gMean (% CV) [1] | INS-Cmax, gMean (% CV) [1] | INS-AUClast, gMean (% CV) [1] | GIR-AUC0-10 h, gMean (% CV) (healthy Japanese males) | GIRmax, gMean (% CV) (healthy Japanese males) | median GIR-tmax (time to reach GIRmax) (healthy Japanese males) [h] | INS-AUCinf mean ratio SAR-Asp/NN-Asp-Jp, point estimate (90% CI) [1, 2] | INS-AUClast mean ratio SAR-Asp/NN-Asp-Jp, point estimate (90% CI) [1, 2] | INS-Cmax mean ratio SAR-Asp/NN-Asp-Jp, point estimate (90% CI) [1, 2] | GIR-AUC0-10 h mean ratio SAR-Asp/NN-Asp-Jp, point estimate (95% CI) (healthy Japanese males; [3]) | GIRmax mean ratio SAR-Asp/NN-Asp-Jp, point estimate (95% CI) (healthy Japanese males; [3]) |
| --- | --- | --- | --- | --- | --- | --- | --- | --- | --- | --- | --- |
| insulin aspart [NN-Asp-Jp] | 15,200 (27) pg·h/mL | 6690 (31) pg/mL | 15,100 (27) pg·h/mL | 2098.06 (23.5) mg/kg | 8.72 (21.0) mg/(kg·min) | 2.35 | – | – | – | – | – |
| insulin aspart [SAR-Asp] | 15,400 (26) pg·h/mL | 6690 (32) pg/mL | 15,300 (27) pg·h/mL | 2054.12 (22.2) mg/kg | 8.70 (20.9) mg/(kg·min) | 2.82 | 1.02 | 1.02 | 1.00 | 1.00 | 1.01 |
